Patent US20130058937A1 (Hoffmann-La Roche, published 2013)

B1: 2+1 IgG Crossfab (N-terminal); VL/VH exchange (MCSP (LC007)/huCD3) (bispecific antibody)
chain 1: DIQMTQSPSSLSASVGDRVTITCRASQDIRNYLNWYQQKPGKAPKLLIYYTSRLESGVPSRFSGSGSGTDYTLTISSLQPEDFATYYCQQGNTLPWTFGQGTKVEIKSSASTKGPSVFPLAPSSKSTSGGTAALGCLVKDYFPEPVTVSWNSGALTSGVHTFPAVLQSSGLYSLSSVVTVPSSSLGTQTYICNVNHKPSNTKVDKKVEPKSCGGGGSGGGGSEVQLQESGPGLVKPSQSLSLTCSVTGYSITSGYYWNWIRQFPGNKLEWMGYITYDGSNNYNPSLKNRISITRDTSKNQFFLKLNSVTTEDTATYYCADFDYWGQGTTLTVSSASTKGPSVFPLAPSSKSTSGGTAALGCLVKDYFPEPVTVSWNSGALTSGVHTFPAVLQSSGLYSLSSVVTVPSSSLGTQTYICNVNHKPSNTKVDKKVEPKSCDKTHTCPPCPAPEAAGGPSVFLFPPKPKDTLMISRTPEVTCVVVDVSHEDPEVKFNWYVDGVEVHNAKTKPREEQYNSTYRVVSVLTVLHQDWLNGKEYKCKVSNKALGAPIEKTISKAKGQPREPQVCTLPPSRDELTKNQVSLSCAVKGFYPSDIAVEWESNGQPENNYKTTPPVLDSDGSFFLVSKLTVDKSRWQQGNVFSCSVMHEALHNHYTQKSLSLSPGK
chain 2: EVQLVESGGGLVQPGGSLRLSCAASGYSFTGYTMNWVRQAPGKGLEWVALINPYKGVSTYNQKFKDRFTISVDKSKNTAYLQMNSLRAEDTAVYYCARSGYYGDSDWYFDVWGQGTLVTVSSASVAAPSVFIFPPSDEQLKSGTASVVCLLNNFYPREAKVQWKVDNALQSGNSQESVTEQDSKDSTYSLSSTLTLSKADYEKHKVYACEVTHQGLSSPVTKSFNRGEC
chain 3: DIVLTQSPSSLSASLGDRVTISCSASQGIRNYLNWYQQRPDGTVKLLIYYTSSLHSGVPSRFSGSGSGTDYSLTISNLEPEDIATYYCQQYSKLPWTFGGGTKLEIKRTVAAPSVFIFPPSDEQLKSGTASVVCLLNNFYPREAKVQWKVDNALQSGNSQESVTEQDSKDSTYSLSSTLTLSKADYEKHKVYACEVTHQGLSSPVTKSFNRGEC
chain 4: not shown
notes: Two MCSP Fabs, one CD3 Crossfab fused to the N-terminus of one Fab; also called anti-MCSP/anti-huCD3; CD3-MCSP 2+1 IgG Crossfab (N-terminal)
B2: CD3-MCSP 1+1 IgG Crossfab (N-terminal) (SEQ ID NOs 1, 3, 4, 86) (bispecific antibody)
chain 1: B1 chain 1
chain 2: B1 chain 2
chain 3: B1 chain 3
chain 4: not shown
B3: CD3-MCSP 1+1 CrossMab; CL/CH1 exchange (MCSP (LC007)/huCD3) (bispecific antibody)
chain 1: B1 chain 3
chain 2: DIQMTQSPSSLSASVGDRVTITCRASQDIRNYLNWYQQKPGKAPKLLIYYTSRLESGVPSRFSGSGSGTDYTLTISSLQPEDFATYYCQQGNTLPWTFGQGTKVEIKSSASTKGPSVFPLAPSSKSTSGGTAALGCLVKDYFPEPVTVSWNSGALTSGVHTFPAVLQSSGLYSLSSVVTVPSSSLGTQTYICNVNHKPSNTKVDKKVEPKSC
chain 3: not shown
chain 4: EVQLQESGPGLVKPSQSLSLTCSVTGYSITSGYYWNWIRQFPGNKLEWMGYITYDGSNNYNPSLKNRISITRDTSKNQFFLKLNSVTTEDTATYYCADFDYWGQGTTLTVSSASTKGPSVFPLAPSSKSTSGGTAALGCLVKDYFPEPVTVSWNSGALTSGVHTFPAVLQSSGLYSLSSVVTVPSSSLGTQTYICNVNHKPSNTKVDKKVEPKSCDKTHTCPPCPAPEAAGGPSVFLFPPKPKDTLMISRTPEVTCVVVDVSHEDPEVKFNWYVDGVEVHNAKTKPREEQYNSTYRVVSVLTVLHQDWLNGKEYKCKVSNKALGAPIEKTISKAKGQPREPQVCTLPPSRDELTKNQVSLSCAVKGFYPSDIAVEWESNGQPENNYKTTPPVLDSDGSFFLVSKLTVDKSRWQQGNVFSCSVMHEALHNHYTQKSLSLSPGK
B4: 2+1 IgG Crossfab (N-terminal), inverted; CL/CH1 exchange (MCSP (LC007)/huCD3) (bispecific antibody)
chain 1: B1 chain 3
chain 2: B3 chain 2
chain 3: B3 chain 4
chain 4: not shown
notes: also called the inverted construct; CD3/MCSP 2+1 IgG Crossfab (N-terminal), inverted

Experiments:
[1] = biological target: T1, human MCSP (Melanoma-associated Chondroitin Sulfate Proteoglycan), expressed on tumor cells (human, UniProt Q6UVK1 30-2322); assay: cell-based or functional assay
[2] = biological target: T1, human MCSP (Melanoma-associated …); assay: FACS on WM266-4 cells, FITC/PE anti-human Fc secondary
Description: (§1) Binding of the different bispecific constructs to CD3 on Jurkat (ATCC #TIB-152) cells, and the respective tumor antigen MCSP on WM266-4 cells or CEA on LS174-T cells, was determined by FACS. Briefly, cells were harvested, counted and checked for viability. 0.15-0.2 million cells per well were plated in a round-bottom 96-well plate and incubated with the indicated concentration of the bispecific constructs and controls for 30 min at 4° C. For a better comparison, the constructs were normalized to same molarity. Cells were washed with PBS containing 0.1% BSA once. After incubation with a FITC- or PE-conjugated secondary antibody for 30 min at 4° C., bound constructs were detected using a FACSCantoII (Software FACS Diva). A FITC- or PE-conjugated AffiniPure F(ab′)2 Fragment goat anti-human IgG Fcγ Fragment Specific (Jackson Immuno Research Lab #109-096-098/working solution 1:20, or #109-116-170/working solution 1:80, respectively) was used. Unless otherwise indicated, cells were fixed with 100 μl/well fixation buffer (BD #554655) for 15 min at 4° C. in the dark, centrifuged for 6 min at 400×g and kept in 200 μl/well PBS containing 0.1% BSA until analysis. EC50 values were calculated using the GraphPad Prism 5 software.
While binding of both construct to MCSP on cells was comparably good, the binding of the “inverted” construct to CD3 was reduced compared to the other construct.

[3] = biological target: T2, human CD3, expressed by Jurkat cells (human, UniProt P07766 23-207); assay: FACS on Jurkat cells, FITC/PE anti-human Fc secondary
T2 construct: whole, on cells; The assay presents the whole CD3 complex on Jurkat T cells; also called human CD3 on cells; huCD3
Description: as §1, with “Unless otherwise indicated, cells were fixed with 100 μl/well fixation buffer (BD #554655) for 15 min at 4° C. in the dark, centrifuged for 6 min at 400×g and kept in 200 μl/well PBS containing 0.1% BSA until analysis.” left out
As a control, the equivalent maximum concentration of the corresponding IgGs and the background staining due to the labeled 2ndary antibody (goat anti-human FITC-conjugated AffiniPure F(ab′)2 Fragment, Fcγ Fragment-specific, Jackson Immuno Research Lab #109-096-098) were assessed as well. […]

T1 sequence (Q6UVK1 30-2322): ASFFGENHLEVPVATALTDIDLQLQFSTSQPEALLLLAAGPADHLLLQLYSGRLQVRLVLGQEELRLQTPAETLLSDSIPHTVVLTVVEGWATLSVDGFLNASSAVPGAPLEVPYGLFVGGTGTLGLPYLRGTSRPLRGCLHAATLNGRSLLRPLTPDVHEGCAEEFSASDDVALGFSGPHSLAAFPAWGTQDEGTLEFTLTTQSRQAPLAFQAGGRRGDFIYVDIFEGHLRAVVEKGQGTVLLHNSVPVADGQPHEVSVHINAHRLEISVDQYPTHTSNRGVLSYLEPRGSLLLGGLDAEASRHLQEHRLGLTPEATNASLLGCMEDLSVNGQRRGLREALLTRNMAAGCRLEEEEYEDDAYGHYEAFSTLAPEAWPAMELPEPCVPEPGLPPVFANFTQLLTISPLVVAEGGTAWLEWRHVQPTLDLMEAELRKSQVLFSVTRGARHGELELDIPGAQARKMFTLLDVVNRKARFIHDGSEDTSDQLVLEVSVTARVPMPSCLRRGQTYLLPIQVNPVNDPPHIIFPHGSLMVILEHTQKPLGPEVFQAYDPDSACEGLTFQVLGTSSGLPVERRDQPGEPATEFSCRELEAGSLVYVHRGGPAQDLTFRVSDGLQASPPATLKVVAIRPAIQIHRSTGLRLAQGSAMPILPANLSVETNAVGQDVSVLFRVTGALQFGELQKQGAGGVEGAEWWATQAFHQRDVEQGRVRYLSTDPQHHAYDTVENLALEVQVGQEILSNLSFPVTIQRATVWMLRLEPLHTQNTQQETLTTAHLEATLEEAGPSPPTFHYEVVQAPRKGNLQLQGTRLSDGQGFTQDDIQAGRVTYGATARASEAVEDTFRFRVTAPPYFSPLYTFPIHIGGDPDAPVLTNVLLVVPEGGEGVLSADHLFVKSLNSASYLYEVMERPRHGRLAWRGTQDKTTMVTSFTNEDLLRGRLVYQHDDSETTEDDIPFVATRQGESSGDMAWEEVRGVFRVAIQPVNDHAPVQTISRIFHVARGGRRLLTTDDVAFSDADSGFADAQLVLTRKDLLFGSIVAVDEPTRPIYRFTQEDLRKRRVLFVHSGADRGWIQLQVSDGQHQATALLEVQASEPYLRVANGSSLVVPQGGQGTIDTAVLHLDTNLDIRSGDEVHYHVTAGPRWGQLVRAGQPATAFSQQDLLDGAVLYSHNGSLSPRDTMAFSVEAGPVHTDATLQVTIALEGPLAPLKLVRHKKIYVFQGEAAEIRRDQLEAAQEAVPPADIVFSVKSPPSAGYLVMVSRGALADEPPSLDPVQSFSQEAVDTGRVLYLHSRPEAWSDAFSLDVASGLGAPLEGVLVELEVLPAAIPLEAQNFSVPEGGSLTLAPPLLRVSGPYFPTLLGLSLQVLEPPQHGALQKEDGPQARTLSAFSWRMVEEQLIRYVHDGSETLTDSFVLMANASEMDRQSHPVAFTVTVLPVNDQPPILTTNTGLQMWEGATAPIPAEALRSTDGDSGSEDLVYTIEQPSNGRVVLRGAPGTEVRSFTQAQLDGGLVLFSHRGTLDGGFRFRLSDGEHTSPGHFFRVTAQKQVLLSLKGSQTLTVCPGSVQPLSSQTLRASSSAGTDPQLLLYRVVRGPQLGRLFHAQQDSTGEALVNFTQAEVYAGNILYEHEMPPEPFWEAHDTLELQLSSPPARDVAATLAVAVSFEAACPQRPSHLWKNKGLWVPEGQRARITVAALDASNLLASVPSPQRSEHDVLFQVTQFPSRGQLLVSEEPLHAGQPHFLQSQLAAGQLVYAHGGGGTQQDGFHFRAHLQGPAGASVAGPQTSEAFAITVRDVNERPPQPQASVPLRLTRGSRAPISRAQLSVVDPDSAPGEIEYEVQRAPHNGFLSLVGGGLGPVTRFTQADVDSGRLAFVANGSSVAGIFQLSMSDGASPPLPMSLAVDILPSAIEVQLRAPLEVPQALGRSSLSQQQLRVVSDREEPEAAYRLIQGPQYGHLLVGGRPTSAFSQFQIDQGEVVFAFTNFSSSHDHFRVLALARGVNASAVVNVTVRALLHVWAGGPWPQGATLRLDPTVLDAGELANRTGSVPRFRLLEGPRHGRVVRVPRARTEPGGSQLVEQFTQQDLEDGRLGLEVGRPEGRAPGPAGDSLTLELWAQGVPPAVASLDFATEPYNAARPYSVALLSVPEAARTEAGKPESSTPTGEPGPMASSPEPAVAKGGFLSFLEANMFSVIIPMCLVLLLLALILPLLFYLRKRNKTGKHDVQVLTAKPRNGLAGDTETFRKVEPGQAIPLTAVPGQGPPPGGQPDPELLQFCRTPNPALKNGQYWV
T2 sequence (P07766 23-207): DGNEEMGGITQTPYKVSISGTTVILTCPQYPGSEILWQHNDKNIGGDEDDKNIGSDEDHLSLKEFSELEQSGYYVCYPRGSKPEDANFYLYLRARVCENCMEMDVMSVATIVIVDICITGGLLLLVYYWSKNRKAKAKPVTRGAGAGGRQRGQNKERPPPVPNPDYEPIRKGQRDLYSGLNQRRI

Row | Binder | EC50 of killing (LDH release) of MV-3 cells, human PBMCs, E:T 10:1, 21 h [1] | EC50 of killing (LDH release) of WM266-4 cells, human PBMCs, E:T 10:1, 21 h [1] | EC50 [2] | EC50 [3]
1 | B1 | 0.0092 nM | 0.0331 nM | 0.95 nM | 1.66 nM
2 | B2 | 0.0409 nM | 0.0284 nM |  | 
3 | B3 | 0.0884 nM | 0.0539 nM |  | 
4 | B4 |  |  | 0.57 nM | 6.1 nM
